The sequences below were run on Escherichia coli TOP10 (assay: shrunken log2 fold change of peptide-encoding DNA abundance (4.5 h post-induction vs induction); higher = less antimicrobial activity (less host growth inhibition)). Conditions: time post-induction: 4.5 h; library: site-saturation at positions 5, 18, 19, 20.
RRIRRRPPRLPRPRPRPYGHPRP was tested, and the “shrunken log2 fold change” value was -0.198.
With RRIRYRPPRLPRPRPRPAWDPRP the “shrunken log2 fold change” value was -0.092.
In the case of RRIRCRPPRLPRPRPRPWVGPRP, the “shrunken log2 fold change” value is reported as -0.167.
In the case of RRIRNRPPRLPRPRPRPDVHPRP, the “shrunken log2 fold change” value is reported as 0.0115.
In the case of RRIRLRPPRLPRPRPRPNADPRP, the “shrunken log2 fold change” value is reported as 0.126.
With RRIRIRPPRLPRPRPRPYMVPRP the “shrunken log2 fold change” value was -0.377.
In the case of RRIRNRPPRLPRPRPRPPWDPRP, the “shrunken log2 fold change” value is reported as 0.144.
With RRIRARPPRLPRPRPRPPAQPRP the “shrunken log2 fold change” value was 1.02.
For RRIRRRPPRLPRPRPRPDTWPRP, the “shrunken log2 fold change” value was -0.131.
RRIRTRPPRLPRPRPRPPSHPRP was tested, and the “shrunken log2 fold change” value was -0.143.
With RRIRWRPPRLPRPRPRPPSQPRP the “shrunken log2 fold change” value was 0.452.
In the case of RRIRCRPPRLPRPRPRPLVAPRP, the “shrunken log2 fold change” value is reported as 0.033.
RRIRQRPPRLPRPRPRPYFNPRP was tested, and the “shrunken log2 fold change” value was -0.82.
RRIRVRPPRLPRPRPRPGMQPRP was tested, and the “shrunken log2 fold change” value was 0.116.
In the case of RRIRGRPPRLPRPRPRPVEQPRP, the “shrunken log2 fold change” value is reported as 0.0754.
With RRIRCRPPRLPRPRPRPGDDPRP the “shrunken log2 fold change” value was 0.745.
With RRIRPRPPRLPRPRPRPYMDPRP the “shrunken log2 fold change” value was -0.447.
With RRIRRRPPRLPRPRPRPRWMPRP the “shrunken log2 fold change” value was 0.25.
RRIRSRPPRLPRPRPRPMDKPRP was tested, and the “shrunken log2 fold change” value was 0.0107.
In the case of RRIRERPPRLPRPRPRPQIMPRP, the “shrunken log2 fold change” value is reported as -0.398.
In the case of RRIRKRPPRLPRPRPRPGGGPRP, the “shrunken log2 fold change” value is reported as 0.976.
In the case of RRIRDRPPRLPRPRPRPDWCPRP, the “shrunken log2 fold change” value is reported as 0.163.
For RRIRCRPPRLPRPRPRPCMWPRP, the “shrunken log2 fold change” value was -0.124.
For RRIRSRPPRLPRPRPRPHGAPRP, the “shrunken log2 fold change” value was 0.104.
RRIRNRPPRLPRPRPRPINYPRP was tested, and the “shrunken log2 fold change” value was -0.262.
For RRIRYRPPRLPRPRPRPDPKPRP, the “shrunken log2 fold change” value was -0.22.
RRIRQRPPRLPRPRPRPHRPPRP was tested, and the “shrunken log2 fold change” value was 0.0757.
RRIRWRPPRLPRPRPRPALLPRP was tested, and the “shrunken log2 fold change” value was 0.584.
With RRIRTRPPRLPRPRPRPLYPPRP the “shrunken log2 fold change” value was -0.154.
For RRIRRRPPRLPRPRPRPMATPRP, the “shrunken log2 fold change” value was 0.609.
For RRIRQRPPRLPRPRPRPVQNPRP, the “shrunken log2 fold change” value was 0.0137.
With RRIRKRPPRLPRPRPRPLCNPRP the “shrunken log2 fold change” value was 1.06.
For RRIRDRPPRLPRPRPRPSCEPRP, the “shrunken log2 fold change” value was 0.042.
For RRIRGRPPRLPRPRPRPGCLPRP, the “shrunken log2 fold change” value was 1.01.
In the case of RRIRYRPPRLPRPRPRPSGSPRP, the “shrunken log2 fold change” value is reported as -0.0607.
For RRIRWRPPRLPRPRPRPWDSPRP, the “shrunken log2 fold change” value was -0.287.
RRIRYRPPRLPRPRPRPPRYPRP was tested, and the “shrunken log2 fold change” value was -0.226.
With RRIRLRPPRLPRPRPRPEMAPRP the “shrunken log2 fold change” value was 0.113.
RRIRKRPPRLPRPRPRPHSMPRP was tested, and the “shrunken log2 fold change” value was 0.0496.
In the case of RRIRMRPPRLPRPRPRPKHSPRP, the “shrunken log2 fold change” value is reported as 0.247.
RRIRHRPPRLPRPRPRPRAYPRP was tested, and the “shrunken log2 fold change” value was -0.411.
RRIRIRPPRLPRPRPRPFWTPRP was tested, and the “shrunken log2 fold change” value was -0.353.
In the case of RRIRIRPPRLPRPRPRPQQSPRP, the “shrunken log2 fold change” value is reported as -0.113.
In the case of RRIRVRPPRLPRPRPRPCGVPRP, the “shrunken log2 fold change” value is reported as -0.0743.
With RRIRMRPPRLPRPRPRPDPDPRP the “shrunken log2 fold change” value was 0.634.
RRIRVRPPRLPRPRPRPDFHPRP was tested, and the “shrunken log2 fold change” value was -0.208.
For RRIRRRPPRLPRPRPRPKCVPRP, the “shrunken log2 fold change” value was -0.29.
For RRIRGRPPRLPRPRPRPFKCPRP, the “shrunken log2 fold change” value was -0.307.
With RRIRIRPPRLPRPRPRPKCMPRP the “shrunken log2 fold change” value was -0.229.
RRIRNRPPRLPRPRPRPTWGPRP was tested, and the “shrunken log2 fold change” value was -0.00179.
With RRIRSRPPRLPRPRPRPRSMPRP the “shrunken log2 fold change” value was -0.0644.
With RRIRKRPPRLPRPRPRPVDRPRP the “shrunken log2 fold change” value was 0.248.
RRIRCRPPRLPRPRPRPGEKPRP was tested, and the “shrunken log2 fold change” value was 0.0653.
RRIRLRPPRLPRPRPRPLDMPRP was tested, and the “shrunken log2 fold change” value was -0.358.
In the case of RRIRQRPPRLPRPRPRPFWKPRP, the “shrunken log2 fold change” value is reported as -0.0968.
For RRIRFRPPRLPRPRPRPSLNPRP, the “shrunken log2 fold change” value was -0.642.
RRIRARPPRLPRPRPRPETDPRP was tested, and the “shrunken log2 fold change” value was 0.764.
In the case of RRIRKRPPRLPRPRPRPRPKPRP, the “shrunken log2 fold change” value is reported as 1.03.
In the case of RRIRMRPPRLPRPRPRPDAHPRP, the “shrunken log2 fold change” value is reported as 0.0846.
With RRIRCRPPRLPRPRPRPAPVPRP the “shrunken log2 fold change” value was 0.56.

— the supplement of paper PMC9112550, “Optimization of the antimicrobial peptide Bac7 by deep mutational scanning” (BMC Biology, 2022)
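Note: peptides expressed intracellularly from a pBAD plasmid library in pooled LB shake-flask culture, induced with 0.3% L-arabinose, DNA abundance read by NGS, three biological replicates, DESeq2 with apeglm shrinkage.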
